From the domain aggregation screens of Martell et al. (2025) come the findings set out here.

A short description of the data set: soluble fraction after stress (log2 fold change); higher = more stays soluble; pooled small domains, quantitative proteomics. The following applies: stress: 50 degC. The method, boiled down:
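Custom libraries of small protein domains were pooled and measured in a high-throughput format, with quantitative proteomics as the read-out. Each library was stressed at 50°C. The value is the log2 fold change in the amount of each protein that stays soluble after stress, used as a measure of aggregation propensity; higher values mean more of the protein stays soluble.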

As for “HMENHILIIDDDLMLLKTAEEILSDQYNVSVAKSGIQALNLLNKNIIPDLILLDIDMPQMDGYETL”, the “soluble fraction (log2)” value was -0.0279. For “HMSDIQKGTQINLVNEPLYVSSKTSIVSTYKTGTYYTWGFEANNRIAITNKLENIGVKGQVTGWINKP” the value was -1.1. Turning to “HMKMATITKRTNPSGAVVYRAQVRVKREGYPPYSESRTFSKKSLATEWAKRREFEIETNPDLLFN”, the “soluble fraction (log2)” value was -1.26. Turning to “HMKEVKRDQVIEAARKLFHQFGFKKVSMDEIAKEAGVTKKTIYMYFESKEELLKYFIQEEISN”, the “soluble fraction (log2)” value was -0.224. For “HMRTYEHALTEEEKELILIVSNLSEYKSLPPSQIVPKLADLGIYIASESSFYRVLRAHNQLHHRGR” the value was -2.56; for “HMQKADFDYGDYVDLGLAMGRQSRQLREAVGIKLGIGYANSKRFYQRLQTFGISLAELKQAVEEAENDQQN”, -0.735. Under “HMVRSEDLIGLQGRITLATDVETRGFVELSVKGSLLRRPALSLKGPLAKNTAVVVTASNDHTLEVEAL” stands -0.573; under “HMEIIMIVITKPSITDERIAEIVAVIERNGGVQAHVSKGTDRTVIGIIGKAEPTLAEHLRQMKGVENVIKI”, 0.0636; under “HMGLPPIATGVNDNMSFSQAFAAARAEVGAGGAFEWHGRVYGTYYKNEWDGMSAQERHDFEIAAIRGS”, -0.166. With “HMEEINTAPVFKNIIEIAEYAKTKFTTVEEIPKMIEFIETANSKLDNPHDEESVNELINALSTNIRKNV”, the “soluble fraction (log2)” value turned out to be 0.193.

As to “HMGYGEQEQEAQKYLALHALMSQDPTLAKMYQAPNQYKLMSHVMEQNGIKNVNDYLTDPQQLP”, the “soluble fraction (log2)” value is -0.00068. Under “HMQLPFTPREHEITQLLSRGLSNRQIAEALSLSVRTVEGHIYQASTKLGISSRSELAVLVGQFA” stands -1.89; under “HMKQLNKRQDDILSLAEKEGYVSVENLAKTFTVSQQTIRRDINYLSDHEFLVRTHGGAFYSSG”, 0.00837; under “HMREPQMVTVNGDKVTHGHAYRSNVNPEDWYFTARINGQQLKPQKMEPADVAAYDKKEIGVPELMQR”, -0.0941. Under “HMQAVKQIKVERGMTLEKIAQSEFGDSTRWGEIVEVNNLRAPYISDDPTETRDGVLKPGSNLLIPIP” stands 0.094.

As for “HMPTVLKQGSTGQEVKELQQALSKLGYRVTVTGEFDTATHYGVVRFQRKHRLTIDGIVGPQTLSKIRAHQK”, the “soluble fraction (log2)” value was -2.86. Under “HMTYFIADLIGLQVYTDSGELLGKVDDIYNSGSADIYVVKDELGKQILLPGIKDVIKQIDVDNEKIIVHLI” stands -0.885; under “HMLTEEVEISLMDMTKPTQPATIKTTATIQKGATTVMPKQIKMPEGYEFYGNYKMDQPFELTMTFVVKKI”, 0.115. “HMYRSGGYTGAGKDDEEAGVVHRNEFVNTADAVRNPHVKRFLDVFNVAQKDGTIRMLNTSQILERARLDA”: the “soluble fraction (log2)” value was 0.123. For “HMEEMTIRQKRTMIFFIEATKHILQEDGYDHLTIREIAQRAGYNAATLYHYFRDLDELIIYGSVG” the value was -0.238; for “HMGQVGIPFSDFLAEVENGQVREVVIKGNDISGTFNDNRGFSTYAPNDPNLVEKLTKRGVVINAQPTE”, 0.0645. Regarding “HMRRSLIGPTVRERRRALGITQSRLAAEVGISASYLNLIEGDKRNIGGALLQRIAGALGLALD”, the “soluble fraction (log2)” value is -2.74.

For “HMADRLITLSEVASLLRVSRHTVQAWISPSSPNHRPEFAIMARHAGRRTVFIEAEVTAWLDQRRG”, the “soluble fraction (log2)” value is -1.95. For “HMGKSKAAQSSLVRSIMHQISDKNRGPMPLSEIIDRASIQSIDEAIVRSLVSRMKEQGEIYEPSLGTYEF” the value was -0.209. Under “HMEEVYVPDIRDKSISDAKKILSQMGLKYRIEGEGYDDSTVIKDQTPKPGALLAKDSVVIAYINE” stands 0.126; under “HMGTDFRPVFQYVDELVRAGEFTNLKGMIYFTDGRGIFPEKKPDYDAAFVFLDDGYDPPDVPVWAIKLVL”, -0.161. For “HMTGDIIKQERKKKNLTQIELAKKVGISRNALINYEAGTRIPPISVQLKLADVLGIDILDLK” the value was -0.299; for “HMAVNSALVQRNWLIGYRIAEEELQGDNRAEYGASIIKKLAKELTAEYGKGYTKTNLYHFYSFYKT”, -0.136. For “HMDRNIVYSDFIRSVNQGQVSEVLVQGDNIRGRYLNGKVFQTFAPKDPSLISTLRNKGVRISAEPA”, the “soluble fraction (log2)” value worked out at 0.113. “HMAQVSDTGAIAKIVADAIAANPKQVQQYLDGNEKVLMYLVGQVMKLSKGKANPPMVIQLLKEQLG”: the “soluble fraction (log2)” value is -0.0543.

Regarding “HMEGVSPQTVQEHIRRFIAAEDPASPLSDEALREALGNLGINASRRTVAKYRGEMGIPSSAQRKR”, the “soluble fraction (log2)” value is -0.053. For “HMIYMIDPNDEIAVKLDEIYQRYLNRTIDPEGLIFFYNQIRNAQMGYSDVEKRILESPEYVSIPK” the value was -0.242; for “HMDAAYVYVIGTRVNQRAGPSTSNAVMGVLSEGTRVETLRDEGQWTQIRSNFGTGWMSSSFLSSVAP”, -1.55. Under “HMEELLVAVKADGSIWADGRPITPDGLASFIDSKPADAVLNLAVDKKAPFAAFVKVVDVAKEKKSGRFVIR” stands 0.0577. For “HMSSDLESVIGTHSQEANFALRSWGWIQPDETWKNLRPDQVSQILERANEFMAKAIESFANAQSE” the value was -0.14; for “HMYELSDTEWKIIEQVGLGASNKEIAASLHFSEGTIRNYLSVILDKLSLRDRTQLAILYVKMN”, -0.058; for “HMFDNPLSERDKEILNHISMGKSNKEIANQVGLAEQTIKNTISVILDKTFTSNRAQAASMATKNKW”, 0.547. In the case of “HMYEHLKALRESLGMTQAEFGESVGVAKSTYNNYEIGARDPKSDFWIAVAQRYGVTIDYLMGFSDDPKKT”, the “soluble fraction (log2)” value is -1.65. Under “HMRRVRRTRRLLQDGLLGLMQHKAVADISVKELAEAADVARATVYVHFKDPADVLHQLEQGLY” stands -0.0324. For “HMAKDEYGLTSNQRAFADEYIRNKGNATQAYLFAYPHIKKENTAAVNASRLLRNAKVSKYIADRTKEIL” the value was 0.287; for “HMYLGRKATLLSSISGEKMGNAEVLADGNLMSIYVKSLTGEPLSYGSTVLIIKHSEDQNFYLVQN”, -2.58; for “HMGAYPENSLLKERGQSAVYLIQENRKRLFFNAEAFLINGYNWKDIQVVDDLSKILTGKVIYAK”, -2.76. Under “HMNVDSLIGKKARVLEDIDNLNAKGQVSIDGMEWTARSEDGSEIKKDALVEVVAIEGVKAIVKQ” stands 0.0709. With “HMSGDYRALYSSLPPERASSVVDALNVAGIPYRIQDSTGAIMVPAEQIYDARIRLAGQGLGK”, the “soluble fraction (log2)” value is 0.227. As for “HMIRILIVDDSAFMRKLLSDVFEEDKNFVVVDTARNGQDAVEKVKRLKPDLVTMDVEMPVMDGLTAVEIIM”, the “soluble fraction (log2)” value is -0.36. For “HMQDTTLTSQILRVPSSVNINDLANVLKSLAGKNTVVAPYKAANTIIITGYAPNVRRVLSLANELIPRLDV” the value was -0.53. As for “HMMNNKEIGTRIAVLRKGMGDSQAKLAERLDVSPQAVSKWETGQSLPDIGNLLKLSWLFRTSINHILEGS”, the “soluble fraction (log2)” value is -1.37.

Turning to “HMLSPAQSLLLRTAARRPDGRVIPPDTLRGGARVKVLTSLLQRGWIEPVDGGHVLTDAGYAAIG”, the “soluble fraction (log2)” value was -0.353. For “HMDDILAYEIEDKEDLENLSLGKSIGINLNKLIKPTLNSFDNSLLFLSKKGNIISYGKLNGDLFKPKKVL” the value was 0.0598.

Take “HMKETERKILQAVLGLPLKYRDVIHLFYYEEMSVKEIAEVLHRQESTVTSQLTRARGILKKNL”: the “soluble fraction (log2)” value was determined as 0.09. For “HMFLSSEERRERIIEVLRQQDEVTVVELSHRLGVSEVTTRKDLQQLEEQGYLTRVRGGAVVSGRGQL” the value was -0.0183. For “HMTSFDVMLKSAGANKLAVVKLVKELTGLGLKEAKDIVDAAPSKVKEGVSKEEAEELQKQLTGAGAEVEL” the value was 0.0299; for “HMIMDQTILRKQRELTDRLNRYRNEYYNHNKPSVSDEVYDRLFDELQSLEKETGVQMANSPTTTVG”, -0.0145. Under “HMREEQELFRKLLEVNGIGPKVAAGMLAGGRPEDVVSAIRREDVAWLTKLPGIGRKTAQRIVLDLKDKLD” stands -0.0754.

Turning to “HMTKDYVVIYEGLAQTEAVEILGKLQEMGVSAKVDHNDSILVLKDEEDQIRMALATEGYPKS”, the “soluble fraction (log2)” value was -0.0917. As for “HMGQTDTIIKTTTDLYYEMSTMSDDDKLVVAQTLRDVWMAVGRWSGKLSKKQREKVAEVKRVLGE”, the “soluble fraction (log2)” value was -0.833. Under “HMFYNSSDNAYKILEINKSATVDEIKAAYRKMAKKYHPDKVIHLGQEHQKGAEEKFRQVQEAYEELQKERG” stands 0.0887.

As to “HMPESETIMVDVKGAVQSEGVYELPSTARVNDAIEAAGGFSDQADKKSVNLAQKLSDEAVVYVASQGENV”, the “soluble fraction (log2)” value was 0.207. For “HMSLTPSQDANRSAILDAARDLFARYGFKKTTMEDIAMALRKGKSSLYYYFKNKEDIFQAVIDS” the value was -1.35. For “HMTPPLSKIRNMTPDQQRSSVIEARKKGYNLLQLEGLAKAQGATPADLLVLRNAWAQSEFDQKR” the value was 0.149; for “HMHIMINPDQLSPEQIQSIRTWAEEGLDLNAIQKRLHEDLNIKLTFMDTRFLLQDLDIRIRQPEPEPEAEQ”, -0.00841; for “HMGTRIQAVMEDIQSRIAARTYLPGTRLPSVRAQAQAMQVSVSTVVEAYERLAAEGVIASRPGSGFYVAGP”, -1.44. For “HMQISDSASVKTVVAEAIAANPKAVADFMNGKDTATRYLVGQVMKITKGQAKPELVNQLVLESLAELKEK” the value was 0.335.

Take “HMWKQISSEAELLPAVRSVIQANPGEAEKLRNGEMAPLEFLTGLVMKKTNGMAVPQIVKTLIKKELKI”: the “soluble fraction (log2)” value came out at 0.00479. Take “HMSTFAQNLRALMEKRGVSQNELARSAGLTQSAINKILTGKTKQPGIDTTEAIARVLNVSVAQLIYT”: the “soluble fraction (log2)” value is -0.303. Under “HMLPITPGQKYKFVVKSAEEAAAIIRDKLGEMAQVISVRQVEGEGLARFLKSPKLEIIAQVPVA” stands -0.132; under “HMKKPAERRKELVDAAAHLFAEKGYENTSVRDILDAVGGAPGMFYYYFKSKQDIYVAVMEDF”, -3.54; under “HMTLLVPASKEAILGGLAKIDALKVILKPEKDYSKTHAMTIGTKDEVIAKLDSFLSGMDSEKNQVLIQEYM”, 0.107. For the sequence “HMVSVEINTVERDETFRKMFTSGWKPENRIQALAVEQAKKNGLGRMSEVAGLASFRGIWKQATEQVALEA”, the “soluble fraction (log2)” value is -0.12.
